According to patent US20030186441A1 (MORPHOTEK, published 2003):

Molecular target: T1, full length hMLH1 protein (human, UniProt P40692 2-756)
T1 construct: also called MLH1 (human)
T1 sequence: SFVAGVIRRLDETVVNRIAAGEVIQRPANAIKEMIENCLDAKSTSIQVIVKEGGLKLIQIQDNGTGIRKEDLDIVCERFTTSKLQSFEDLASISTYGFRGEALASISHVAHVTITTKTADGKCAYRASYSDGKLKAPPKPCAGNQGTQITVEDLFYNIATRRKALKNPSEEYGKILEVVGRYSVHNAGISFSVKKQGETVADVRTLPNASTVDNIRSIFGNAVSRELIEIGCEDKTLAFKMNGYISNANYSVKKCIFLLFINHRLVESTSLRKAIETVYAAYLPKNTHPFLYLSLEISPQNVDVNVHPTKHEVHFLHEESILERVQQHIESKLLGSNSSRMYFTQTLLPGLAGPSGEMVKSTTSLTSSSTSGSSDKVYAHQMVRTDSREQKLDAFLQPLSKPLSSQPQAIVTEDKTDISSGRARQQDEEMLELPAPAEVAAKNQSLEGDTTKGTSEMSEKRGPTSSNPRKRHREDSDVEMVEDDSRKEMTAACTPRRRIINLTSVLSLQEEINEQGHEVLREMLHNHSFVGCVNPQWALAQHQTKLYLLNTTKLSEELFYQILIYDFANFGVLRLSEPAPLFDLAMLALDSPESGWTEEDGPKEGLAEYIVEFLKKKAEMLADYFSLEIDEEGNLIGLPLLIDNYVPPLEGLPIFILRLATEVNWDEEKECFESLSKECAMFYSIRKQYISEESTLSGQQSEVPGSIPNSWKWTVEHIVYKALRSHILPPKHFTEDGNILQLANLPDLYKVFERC
Experiment: co-immunoprecipitation of in vitro translated proteins with anti-hMLH1 mAb; converse experiment with N terminal hPMS2 antibody
Source text: […]. […] Lane 6 contains a nonprogrammed reticulocyte lysate. In both panels A and B, autoradiographs of immunoprecipitated products are shown. When a 35S labelled, full-length hMLH1 protein (FIG. 3A, lane 5) was mixed with the unlabelled carboxyl terminal hPMS2 polypeptide, a monoclonal antibody (mAb) to the carboxyl terminus of hPMS2 efficiently immunoprecipitated the labeled hMLH1 protein (lane 1). No hMLH1 protein was precipitated in the absence of hPMS2 (lane 2). Conversely, when the 35S labelled carboxyl terminus of hPMS2 (lane 3) was incubated with unlabelled, full length hMLH1 protein, an anti hMLH1 mAb precipitated the hPMS2 polypeptide (lane 4). In the absence of the unlabelled hMLH1 protein, no hPMS2 protein was precipitated by this mAb (lane 6).
Immunoprecipitation. Immunoprecipitations were performed on in vitro translated proteins by mixing the translation reactions with 1 μg of the MLH1 specific monoclonal antibody (mAB) MLH14 (Oncogene Science, Inc.), a polyclonal antibody generated to codons 2-20 of hPMS2 described above, or a polyclonal antibody generated to codons 843-862 of hPMS2 (Santa Cruz Biotechnology, Inc.) in […] of EBC buffer (50 mM Tris, pH 7.5, 0.1 M NaCl, 0.5% NP40). […]

binding result: no binding
B1: hPMS2-134 (containing codons 1-134 of hPMS2) (other)
chain: MERAESSSTEPAKAIKPIDRKSVHQICSGQVVLSLSTAVKELVENSLDAGATNIDLKLKDYGVDLIEVSDNGCGVEEENFEGLTLKHHTSKIQEFADLTQVETFGFRGEALSSLCALSDVTISTCHASAKVGTR
